Source: patent US20180237480A1 (UNIVERSITY OF EDINBURGH, published 2018)

T1: recombinant mouse cytokeratin 10 (mouse, UniProt P02535 454-570)
T1 construct: also called CK10; recombinant CK10
T1 sequence: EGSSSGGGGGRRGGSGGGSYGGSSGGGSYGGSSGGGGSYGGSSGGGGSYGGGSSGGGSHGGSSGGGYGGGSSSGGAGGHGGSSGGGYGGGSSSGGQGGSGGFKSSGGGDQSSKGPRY

T2: human fibrinogen (human, UniProt P02671 20-629; P02675 31-491; P02679 27-437)
T2 construct: The three chains are general knowledge about fibrinogen; also called human Fg
T2 sequence 1: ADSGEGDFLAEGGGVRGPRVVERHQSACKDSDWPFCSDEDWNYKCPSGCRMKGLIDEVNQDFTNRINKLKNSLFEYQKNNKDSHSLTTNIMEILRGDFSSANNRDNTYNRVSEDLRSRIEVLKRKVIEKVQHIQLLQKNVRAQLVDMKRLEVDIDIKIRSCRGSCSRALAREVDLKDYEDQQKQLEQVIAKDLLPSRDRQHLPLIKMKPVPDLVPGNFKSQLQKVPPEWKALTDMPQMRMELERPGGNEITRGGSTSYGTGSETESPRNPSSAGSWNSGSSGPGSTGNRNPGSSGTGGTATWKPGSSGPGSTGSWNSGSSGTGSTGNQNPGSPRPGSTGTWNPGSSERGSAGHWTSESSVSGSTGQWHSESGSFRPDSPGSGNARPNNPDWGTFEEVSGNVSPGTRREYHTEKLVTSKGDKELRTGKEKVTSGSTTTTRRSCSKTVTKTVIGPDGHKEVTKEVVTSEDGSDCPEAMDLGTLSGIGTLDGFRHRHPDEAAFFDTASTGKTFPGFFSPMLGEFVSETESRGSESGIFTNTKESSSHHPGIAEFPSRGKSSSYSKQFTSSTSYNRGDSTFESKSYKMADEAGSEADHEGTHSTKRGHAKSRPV
T2 sequence 2: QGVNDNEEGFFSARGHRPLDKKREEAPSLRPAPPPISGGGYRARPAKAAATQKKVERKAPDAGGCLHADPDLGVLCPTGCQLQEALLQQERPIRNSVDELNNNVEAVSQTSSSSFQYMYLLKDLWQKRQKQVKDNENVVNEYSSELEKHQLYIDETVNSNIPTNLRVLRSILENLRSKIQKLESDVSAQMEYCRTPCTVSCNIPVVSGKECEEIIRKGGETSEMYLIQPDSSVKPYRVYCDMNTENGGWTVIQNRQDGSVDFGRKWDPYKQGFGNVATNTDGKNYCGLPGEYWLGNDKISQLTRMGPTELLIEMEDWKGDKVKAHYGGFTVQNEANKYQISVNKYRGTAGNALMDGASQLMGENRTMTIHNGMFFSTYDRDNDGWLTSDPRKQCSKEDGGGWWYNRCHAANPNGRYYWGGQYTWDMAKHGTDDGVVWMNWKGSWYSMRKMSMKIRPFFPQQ
T2 sequence 3: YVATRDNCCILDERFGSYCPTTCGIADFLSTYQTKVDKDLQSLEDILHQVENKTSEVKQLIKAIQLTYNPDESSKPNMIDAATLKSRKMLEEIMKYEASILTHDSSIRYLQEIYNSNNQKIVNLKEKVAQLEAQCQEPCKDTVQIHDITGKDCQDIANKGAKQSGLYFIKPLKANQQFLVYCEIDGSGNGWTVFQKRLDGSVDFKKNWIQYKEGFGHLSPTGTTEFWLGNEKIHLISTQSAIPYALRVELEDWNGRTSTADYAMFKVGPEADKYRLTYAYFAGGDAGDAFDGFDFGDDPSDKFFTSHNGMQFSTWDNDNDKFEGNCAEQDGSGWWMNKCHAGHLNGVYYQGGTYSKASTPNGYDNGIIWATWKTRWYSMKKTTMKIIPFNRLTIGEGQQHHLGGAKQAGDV

T3: bovine fibrinogen (bovine, UniProt P02672 20-615; P02676 1-468; P12799 25-444)
T3 construct: The three chains are general knowledge about fibrinogen; also called bovine Fg
T3 sequence 1: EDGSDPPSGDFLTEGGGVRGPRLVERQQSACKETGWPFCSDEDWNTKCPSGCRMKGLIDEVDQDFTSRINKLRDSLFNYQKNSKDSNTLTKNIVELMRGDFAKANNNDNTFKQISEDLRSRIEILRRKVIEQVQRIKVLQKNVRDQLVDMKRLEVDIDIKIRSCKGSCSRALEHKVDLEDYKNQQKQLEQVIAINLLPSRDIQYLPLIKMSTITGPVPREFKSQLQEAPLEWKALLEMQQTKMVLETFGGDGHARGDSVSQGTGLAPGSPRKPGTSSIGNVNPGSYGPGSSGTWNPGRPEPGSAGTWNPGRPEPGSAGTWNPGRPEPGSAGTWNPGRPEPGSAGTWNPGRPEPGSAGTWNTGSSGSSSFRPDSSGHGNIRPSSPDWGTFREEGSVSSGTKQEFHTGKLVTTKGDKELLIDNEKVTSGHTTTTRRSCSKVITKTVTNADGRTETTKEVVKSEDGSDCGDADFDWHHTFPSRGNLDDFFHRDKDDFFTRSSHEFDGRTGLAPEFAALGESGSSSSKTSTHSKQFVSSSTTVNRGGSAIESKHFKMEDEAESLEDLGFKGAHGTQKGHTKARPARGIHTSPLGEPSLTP
T3 sequence 2: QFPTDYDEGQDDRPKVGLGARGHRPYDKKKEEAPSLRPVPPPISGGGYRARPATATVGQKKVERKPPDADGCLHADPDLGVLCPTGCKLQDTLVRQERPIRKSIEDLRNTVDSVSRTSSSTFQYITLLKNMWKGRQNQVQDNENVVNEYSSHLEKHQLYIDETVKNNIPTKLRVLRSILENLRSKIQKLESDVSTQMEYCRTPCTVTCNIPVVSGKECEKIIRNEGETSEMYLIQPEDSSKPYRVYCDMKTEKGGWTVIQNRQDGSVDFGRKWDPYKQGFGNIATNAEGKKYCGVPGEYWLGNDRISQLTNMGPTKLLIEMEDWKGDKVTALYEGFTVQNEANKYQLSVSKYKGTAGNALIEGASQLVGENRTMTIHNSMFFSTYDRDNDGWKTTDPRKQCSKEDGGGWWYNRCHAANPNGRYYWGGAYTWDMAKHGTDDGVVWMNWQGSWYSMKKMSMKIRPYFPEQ
T3 sequence 3: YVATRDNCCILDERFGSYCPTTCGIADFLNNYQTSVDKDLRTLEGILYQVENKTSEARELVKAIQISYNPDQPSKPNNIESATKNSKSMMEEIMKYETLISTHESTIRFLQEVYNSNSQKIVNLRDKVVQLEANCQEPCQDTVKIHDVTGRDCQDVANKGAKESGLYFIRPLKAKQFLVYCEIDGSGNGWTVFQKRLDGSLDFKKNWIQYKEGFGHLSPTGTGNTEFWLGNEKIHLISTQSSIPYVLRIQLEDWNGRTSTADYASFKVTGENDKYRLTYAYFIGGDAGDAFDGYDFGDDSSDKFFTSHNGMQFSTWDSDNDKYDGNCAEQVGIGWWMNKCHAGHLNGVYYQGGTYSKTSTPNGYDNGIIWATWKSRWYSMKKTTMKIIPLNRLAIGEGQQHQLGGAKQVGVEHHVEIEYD

B1: SpsO of S. pseudintermedius ED99, full-length, expressed on L. lactis MG1363 (pOri23) (other)
chain: SVKEGQQSINSSEKESADPTVVDLISKKETNLDGLDVSREETTKVPINENKRGEEQSISDKAITEKADTPVSNLSSKEVEEQGVSDKAITEKADTPVTNLSSKEAKEQGASDRVITEKADTPVSNLSSKEAKEQGASDRVITEKADTPVSNLSSKEVEEQGVSDKAIEKIADASATDLSSKEEVEQDISTQGKVKSKEAVQVESSQLQNLNSEINAEPNEIKAIDRSSILPLNLNDEENNKKVNKGTRVPEATLRNASNNQLNTRMRSVSLFRVARLTEINRNVNDKVKVSDIDIAIAPPHTNPKTGKEEFWATSSSVLKLKASYELDNSISKGDQFTIQFGQNIRPGGLNLPRPYNFLYDKDKKLVATGRYNKESNTITYTFTDYVDKHQNIKGSFEMNAFSRKENATTDKTAYPMDVTIANQKYSENIIVDYGNKKNAAIISSTEYIDLDGSRKMTTYINQNGSKNSIYRADMQIDLNGYKFDPSKNNFKIYEVENSSDFVDSFSPDVSKLRDVTSQFNIQYTNNNTMAKVDFGTNLWRGKKYIIQQVANIDDSKLVKNASINYTLNKMDFNNKRTVETHNNTYSTVKDKSTALGDVQESQSISESQSVSESESLSESQSISESESLSESQSISESESLSESQSISESESLSESQSISESESLSESQSISESESLSESQSISESESLSESQSISESESLSESQSISESESLSESQSISESESLSESQSISESESLSESQSISESESLSESQSISESESLSESQSISESESLSESQSISESESLSESQSISESESLSESQSISESESLSESQSISESESLSESQSISESESLSESQSISESESLSESQSISESESLSESQSISESESLSESQSISESESLSESQSISESESLSESQSISESESLSESQSISESESLSESQSISESESLSESQSISESESLSESQSISESESLSESQSISESESLSESQSVSESESLSESQSISESESLSESQSISESESLSESQSISESESLSESQSISESESLSESQSISESESLSESQSISESESLSESQSISESESLSESQSISESESLSESQSISESESLSESQSISESESLSESQSISESESLSESQSISESESLSESQSISESESLSESQSISESESLSESQSVSESESLSESQSISESESLSESQSISESESLSESQSISESESLSESQSISESESLSESQSISESESLSESQSISESESLSESQSISESESLSESQSVSESESLSESQSISESESLSESQSISESESLSESQSISESESLSESQSISESESLSESQSISESESLSESQSISESESLSESQSISESESLSESQSISESESLSESQSISESESLSESQSISESESLSESQSISESESLSESQSISESESLSESQSISESESLSESQSISESESLSESQSISESESLSESQSISESESLSESQSISESESLSESQSISESESLSESQSISESESLSESQSISERESLSESQSISESESLSESQSISESESLSESQSISESESLSESQSISESESLSESQSISESESLSESQSISESESLSESQSISESESLSESQSISESESLSESQSISESESLSESQSISESESLSESQSVSESESLSESQSISESESLSESQSISESESLSESQSISESESLSESQSISESESLSESQSISESESLSESQSISESESLSESQSISESESLSESQSISESESLSESQSISESESLSESQSISESESLSESQSISESESKSLPNTGTGEKISNYPGILGGLLSILGISLLKRKDREKKLGQKSNK
notes: also called L. lactis expressing SpsO; putative MSCRAMM SpsO
B2: SpsL of S. pseudintermedius ED99, full-length, expressed on L. lactis MG1363 (pOri23) (other)
chain: NEDVTETTGRNSVTTQASEQHLQVEAVPQEGNNVNVSSVKVPTNTATQAQEDVASVSDVKAHADDALQVQESSHTDGVSSEFKQETAYANPQTAETVKPNSEAVHQSEYEDKQKPVSSSRKEDETMLQQQQVEAKNVVSAEEVSKEENTQVMQSPQDVEQHVGGKDISNEVVVDRSDIKGFNSETTIRPHQGQGGRLNYQLKFPSNVKPGDQFTIKLSDNINTHGVSVERTAPRIMAKNTEGATDVIAEGLVLEDGKTIVYTFKDYVNGKQNLTAELSVSYFVSPEKVLTTGTQTFTTMIGNHSTQSNIDVYYDNSHYVDGRISQVNKKEAKFQQIAYINPNGYLNGRGTIAVNGEVVSGTTKDLMQPTVRVYQYKGQGVPPESITIDPNMWEEISINDTMVRKYDGGYSLNLDTSKNQKYAIYYEGAYDAQADTLLYRTYIQSLNSYYPFSYQKMNGVKFYENSASGSGELKPKPPEQPKPEPEIQADVVDIIEDSHVIDIGWNTAVGEESGANQGPQEEITENHDIEVIEENNLVEMTEDTAVGEESGANQGPQEEITENHDIEVIEENNLVEMTEDTALEEESGANQGPQEEITENHDIEVIEENNLVEMTEDTALEEESGANQGPQEEITENHDIEVIEENNLVEMTEDTAVGEESGANQGPQEEITENHDIEVIEENNLVEMTEDTAVGEESGANQGPQEEITENHDIEVIEENNLVEMTEDTALEEESGANQGPQEEITENHNIEVIEENNLVEMTEDTAVGEESGANPGPQEEVTENQPQQEEIMENQEVEKKGDSNLVESTKTPKAEESVSVQPTLEDKNTKNHVNTVVVNTKVSEVKEKDPHHTKALPDTGTTSRSHSMMIPLLLVAGSVVLLRRKKKHSKVN
notes: also called L. lactis expressing SpsL; putative MSCRAMM SpsL

Legend:
Assay in all cases: solid phase adherence assay, L. lactis on coated plates, absorbance 590 nm
[1] = target: T1, recombinant mouse cytokeratin 10
human fibrinogen = target: T2, human fibrinogen
bovine fibrinogen = target: T3, bovine fibrinogen

Binder | binding result [1] | binding result (human fibrinogen) | binding result (bovine fibrinogen)
B1 | no binding (tested: 1 µg CK10 coated per well) | no binding (tested: 1 µg Fg coated per well) | no binding (tested: 1 µg Fg coated per well)
B2 | no binding (tested: 1 µg CK10 coated per well) | no binding (tested: 1 µg Fg coated per well) | no binding (tested: 1 µg Fg coated per well)
